Data from patent publication US20200277405A1, “COMPOSITION FOR ANTIBODY-DRUG CONJUGATE DIRECTED AGAINST TUMOR-CELL ASSOCIATED POLYSIALIC ACID” (Cornell University, priority 2019, published 2020).

What was measured:
[1] = test system: polySia in formalin-fixed, paraffin-embedded (FFPE) human tissue sections of SCLC; experiment: IHC of FFPE tissue sections
From the text: FIGS. 6A-6D depict immunostaining of antibody ch735 to polySia-expressing cancer cells. […] Data are the geometric mean fluorescence intensity (MFI), with the values reported as the average of three replicates and the error represented as the standard deviation of the mean. […] Cells were stained with ch735, wheat germ agglutinin (WGA) to stain the cell membrane, and Hoescht to stain nuclei. Scale bars, 10 μm. […] Scale bars, 200 μm.
The avidin-biotin complex (ABC) immunoperoxidase method was performed essentially as previously described (Zhang et al., “Selection of Tumor Antigens as Targets for Immune Attack Using Immunohistochemistry: I. Focus on Gangliosides,” Int. J. Cancer 73:42-9 (1997), which is hereby incorporated by reference in its entirety). Briefly, the sections were quenched with 0.1% H2O2 in PBS for 15 min, blocked with avidin and biotin reagents (Vector, Burlingame, Calif.) for 10 min each, incubated in 10% serum from which the second antibody was raised and incubated with mAb 735 at 1 μg/ml for 1 h. This concentration was selected based on strong reactivity against known positive target cells and little or no background against stroma. The sections were subsequently incubated with biotinylated secondary antibodies for 30 min, and then incubated in ABC reagent per manufacturer's protocols (ABC Kit, Vector Laboratories, PK-6102) for 30 min. […]

SW2 cells = experiment: Supplementary internalization assays; assay type: cell-based, human; conditions: increases with concentration and time
From the text: FIGS. 11A-11D depict internalization of mo735 by polySia-expressing cancer cells. […] Trypan blue was used to quench extracellular fluorescence. […] Cell membranes were labeled with wheat germ agglutinin (WGA,) and nuclei were stained with Hoescht. Scale bar, 10 μm. […] Cell membranes were labeled with wheat germ agglutinin (WGA) and nuclei were stained with Hoescht. Scale bar, 10 μm. […] Images include external mo735 detected with anti-mouse AF488, internal mo735 detected with anti-mouse AF647, nuclei stained with Hoescht, and a merged image. Scale bar, 10 μm.
For supplementary internalization assays, AF488-labeled isotype and mo735 antibodies were incubated with trypsinized SW2 cells at various concentrations for 2 h. Upon measurement in the flow cytometer, the extracellular fluorescence was quenched using trypan blue (final concentration 0.2%). For each sample, the mean fluorescence intensity (MFI) of 10,000 cells was measured in triplicate. […] Antibody internalization was also assessed according to the protocol described by Schmitz and coworkers (Diestel et al., “NCAM is Ubiquitylated, Endocytosed and Recycled in Neurons,” J. Cell. Sci. 120:4035-49 (2007), which is hereby incorporated by reference in its entirety), cells were incubated for 1 or 4 h at 37° C. with 150 nM mo735 in cell culture media. […]

[2] = test system: polySia-negative MCF7 cells; experiment: Internalization assay, MCF7; assay type: cell-based, human; conditions: after 1 h
Protocol: (§1) FIGS. 10A-10E depict internalization of ch735 into polySia-positive cancer cells. […] Nuclei were stained by Hoescht (blue). Scale bar, 10 Fluorescence intensity was measured across the dotted line and normalized to the maximum value in each channel. Arrows indicate regions of colocalization. […] Nuclei were stained by Hoescht. Scale bar, 10 Fluorescence intensity was measured across the dotted line and normalized to the maximum value in each channel. Arrows indicate regions of colocalization. The inset show only the ch735 and DNA channels of the boxed region. […] Scale bar, 10 Fluorescence intensity was measured across the dotted white line and normalized to the maximum value in each channel. […]
(§2) To calculate percent internalization, pre-chilled cells were incubated with 50 nM ch735 on ice for 1 h and then washed to remove unbound antibodies. […] Cells were fixed in 2% paraformaldehyde for 20 min and then stained with AF488-labeled antibody against human IgG and analyzed by flow cytometry and FlowJo software. Receptor-antibody complex internalization was calculated using the geometric mean as percent fluorescent intensity loss at 37° C. relative to that on ice. For each sample, the geometric mean fluorescence intensity (MFI) of 10,000 cells was measured in triplicate.

[3] = test system: polySia-positive cell line SH-SY5Y; experiment: Time course of antibody internalization; assay type: cell-based, human
Protocol: as §1, §2

Molecule	IHC staining of polySia ([1]; FFPE human SCLC tissue sections)	IHC staining of polySia ([1]; adjacent normal tissue, except bronchial epithelial cells and alveolar macrophages)	antibody internalization (SW2 cells)	antibody internalization [2]	antibody internalized ([3]; 15 min) [%]	maximum internalization ([3]; reached by 30 min) [%]
mo735: well-known mouse-derived IgG2a monoclonal antibody 735 targeting polysialic acid (antibody, V domains shown) VH: QIQLQQSGPELVRPGASVKISCKASGYTFTDYYIHWVKQRPGEGLEWIGWIYPGSGNTKYNEKFKGKATLTVDTSSSTAYMQLSSLTSEDSAVYFCARGGKFAMDYWGQGTSVTVSS VL: DVVMTQTPLSLPVSLGDQASISCRSSQSLVHSNGNTYLYWYLQKPGQSPKPLIYRVSNRFSGVPDRFSGSGSGTDFTLKISRVEAEDLGVYFCFQGTHVPYTFGGGTRLEIK	strong staining	little to no staining	comparable internalization			
ch735: chimeric human IgG1 polySia-specific mAb made by swapping variable regions of mouse mAb 735 (antibody, V domains shown) VH: QIQLQQSGPELVRPGASVKISCKASGYTFTDYYIHWVKQRPGEGLEWIGWIYPGSGNTKYNEKFKGKATLTVDTSSSTAYMQLSSLTSEDSAVYFCARGGKFAMDYWGQGTSVTVSS VL: DVVMTQTPLSLPVSLGDQASISCRSSQSLVHSNGNTYLYWYLQKPGQSPKPLIYRVSNRFSGVPDRFSGSGSGTDFTLKISRVEAEDLGVYFCFQGTHVPYTFGGGTRLEIK				no internalization	~30	40
